# System: Escherichia coli TOP10
# Assay: shrunken log2 fold change of peptide-encoding DNA abundance (4.5 h post-induction vs induction); higher = less antimicrobial activity (less host growth inhibition)
# Details: time post-induction: 4.5 h; library: site-saturation at positions 5, 18, 19, 20
# 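Further: peptides expressed intracellularly from a pBAD plasmid library in pooled LB shake-flask culture, induced with 0.3% L-arabinose, DNA abundance read by NGS, three biological replicates, DESeq2 with apeglm shrinkage.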
row,Sequence,shrunken log2 fold change
1,RRIRERPPRLPRPRPRPTIYPRP,0.00607
2,RRIRERPPRLPRPRPRPTPFPRP,-0.211
3,RRIRERPPRLPRPRPRPTPVPRP,0.059
4,RRIRERPPRLPRPRPRPTQYPRP,-0.304
5,RRIRERPPRLPRPRPRPTSKPRP,-0.426
6,RRIRERPPRLPRPRPRPTTMPRP,-0.364
7,RRIRERPPRLPRPRPRPTVPPRP,-0.237
8,RRIRERPPRLPRPRPRPTWGPRP,-0.0539
9,RRIRERPPRLPRPRPRPTWHPRP,0.358
10,RRIRERPPRLPRPRPRPTYFPRP,-0.475
11,RRIRERPPRLPRPRPRPVAEPRP,0.0949
12,RRIRERPPRLPRPRPRPVCAPRP,0.415
13,RRIRERPPRLPRPRPRPVCQPRP,0.121
14,RRIRERPPRLPRPRPRPVCRPRP,-0.0104
15,RRIRERPPRLPRPRPRPVDMPRP,-0.107
16,RRIRERPPRLPRPRPRPVDWPRP,0.0136
17,RRIRERPPRLPRPRPRPVEKPRP,-0.0163
18,RRIRERPPRLPRPRPRPVETPRP,-0.02
19,RRIRERPPRLPRPRPRPVFYPRP,-0.437
20,RRIRERPPRLPRPRPRPVGCPRP,0.168
21,RRIRERPPRLPRPRPRPVGRPRP,0.233
22,RRIRERPPRLPRPRPRPVHAPRP,-0.0762

row,Sequence,shrunken log2 fold change
1,RRIRERPPRLPRPRPRPVHMPRP,-0.0419
2,RRIRERPPRLPRPRPRPVHQPRP,0.107
3,RRIRERPPRLPRPRPRPVKHPRP,0.0875
4,RRIRERPPRLPRPRPRPVKMPRP,-0.0989
5,RRIRERPPRLPRPRPRPVLSPRP,-0.101
6,RRIRERPPRLPRPRPRPVMDPRP,-0.0467
7,RRIRERPPRLPRPRPRPVPLPRP,-0.244
8,RRIRERPPRLPRPRPRPVQPPRP,0.336
9,RRIRERPPRLPRPRPRPVRDPRP,0.337
10,RRIRERPPRLPRPRPRPVSWPRP,0.368
11,RRIRERPPRLPRPRPRPVTKPRP,0.365
12,RRIRERPPRLPRPRPRPVTPPRP,0.0669
13,RRIRERPPRLPRPRPRPVTYPRP,-0.17
14,RRIRERPPRLPRPRPRPVVIPRP,-0.251
15,RRIRERPPRLPRPRPRPVVLPRP,-0.0819
16,RRIRERPPRLPRPRPRPVYRPRP,-0.514
17,RRIRERPPRLPRPRPRPWCDPRP,-0.508
18,RRIRERPPRLPRPRPRPWCFPRP,-0.161
19,RRIRERPPRLPRPRPRPWEEPRP,-0.0572
20,RRIRERPPRLPRPRPRPWEHPRP,-0.221
21,RRIRERPPRLPRPRPRPWEVPRP,-0.17
22,RRIRERPPRLPRPRPRPWFDPRP,-0.529

row,Sequence,shrunken log2 fold change
1,RRIRERPPRLPRPRPRPWFIPRP,-0.00655
2,RRIRERPPRLPRPRPRPWGAPRP,0.165
3,RRIRERPPRLPRPRPRPWGRPRP,0.268
4,RRIRERPPRLPRPRPRPWGWPRP,0.173
5,RRIRERPPRLPRPRPRPWHDPRP,-0.251
6,RRIRERPPRLPRPRPRPWHEPRP,-0.0932
7,RRIRERPPRLPRPRPRPWHVPRP,-0.0018
8,RRIRERPPRLPRPRPRPWILPRP,0.0494
9,RRIRERPPRLPRPRPRPWIRPRP,-0.667
10,RRIRERPPRLPRPRPRPWKSPRP,-0.0163
11,RRIRERPPRLPRPRPRPWKWPRP,-0.0653
12,RRIRERPPRLPRPRPRPWLKPRP,-0.24
13,RRIRERPPRLPRPRPRPWMPPRP,-0.062
14,RRIRERPPRLPRPRPRPWMQPRP,-0.327
15,RRIRERPPRLPRPRPRPWMWPRP,0.0673
16,RRIRERPPRLPRPRPRPWRKPRP,-0.173
17,RRIRERPPRLPRPRPRPWSGPRP,-0.48
18,RRIRERPPRLPRPRPRPWSMPRP,-0.707
19,RRIRERPPRLPRPRPRPWTVPRP,0.0377
20,RRIRERPPRLPRPRPRPWVLPRP,-0.0134
21,RRIRERPPRLPRPRPRPWVRPRP,-0.122
22,RRIRERPPRLPRPRPRPWVVPRP,-0.151

row,Sequence,shrunken log2 fold change
1,RRIRERPPRLPRPRPRPWWAPRP,-0.0718
2,RRIRERPPRLPRPRPRPWWMPRP,-0.436
3,RRIRERPPRLPRPRPRPWYAPRP,-0.137
4,RRIRERPPRLPRPRPRPWYSPRP,-0.798
5,RRIRERPPRLPRPRPRPWYYPRP,0.0432
6,RRIRERPPRLPRPRPRPYCFPRP,-0.511
7,RRIRERPPRLPRPRPRPYCGPRP,-0.109
8,RRIRERPPRLPRPRPRPYDKPRP,-1.41
9,RRIRERPPRLPRPRPRPYDNPRP,0.033
10,RRIRERPPRLPRPRPRPYDPPRP,-0.0709
11,RRIRERPPRLPRPRPRPYECPRP,-0.0425
12,RRIRERPPRLPRPRPRPYFTPRP,-0.971
13,RRIRERPPRLPRPRPRPYHDPRP,-0.114
14,RRIRERPPRLPRPRPRPYIEPRP,-0.266
15,RRIRERPPRLPRPRPRPYIRPRP,-1.16
16,RRIRERPPRLPRPRPRPYITPRP,-1.07
17,RRIRERPPRLPRPRPRPYKCPRP,-0.122
18,RRIRERPPRLPRPRPRPYKDPRP,-0.157
19,RRIRERPPRLPRPRPRPYLDPRP,-0.149
20,RRIRERPPRLPRPRPRPYLHPRP,-0.96
21,RRIRERPPRLPRPRPRPYLMPRP,-0.696
22,RRIRERPPRLPRPRPRPYMHPRP,-0.232

row,Sequence,shrunken log2 fold change
1,RRIRERPPRLPRPRPRPYMNPRP,-0.602
2,RRIRERPPRLPRPRPRPYNLPRP,-0.321
3,RRIRERPPRLPRPRPRPYPAPRP,-0.544
4,RRIRERPPRLPRPRPRPYPIPRP,0.113
5,RRIRERPPRLPRPRPRPYQFPRP,-0.159
6,RRIRERPPRLPRPRPRPYQHPRP,-0.106
7,RRIRERPPRLPRPRPRPYRLPRP,-0.102
8,RRIRERPPRLPRPRPRPYRPPRP,-0.41
9,RRIRERPPRLPRPRPRPYSEPRP,-0.157
10,RRIRERPPRLPRPRPRPYSTPRP,-0.335
11,RRIRERPPRLPRPRPRPYTCPRP,-0.398
12,RRIRERPPRLPRPRPRPYWAPRP,-0.888
13,RRIRERPPRLPRPRPRPYWIPRP,-0.376
14,RRIRERPPRLPRPRPRPYWNPRP,-0.858
15,RRIRERPPRLPRPRPRPYWRPRP,-0.0166
16,RRIRERPPRLPRPRPRPYYNPRP,-0.675
17,RRIRFRPPRLPRPRPRPAAKPRP,-0.118
18,RRIRFRPPRLPRPRPRPACNPRP,-0.26
19,RRIRFRPPRLPRPRPRPACVPRP,-0.0826
20,RRIRFRPPRLPRPRPRPADEPRP,0.173
21,RRIRFRPPRLPRPRPRPAEMPRP,0.00299

# Reference: the supplement of paper PMC9112550, “Optimization of the antimicrobial peptide Bac7 by deep mutational scanning” (BMC Biology, 2022)
